Data as given in US10398755.

Target: T1, mouse CLU with C-terminal (His)6 (CLU-His), recombinant secreted clusterin, Q06890
T1 chain: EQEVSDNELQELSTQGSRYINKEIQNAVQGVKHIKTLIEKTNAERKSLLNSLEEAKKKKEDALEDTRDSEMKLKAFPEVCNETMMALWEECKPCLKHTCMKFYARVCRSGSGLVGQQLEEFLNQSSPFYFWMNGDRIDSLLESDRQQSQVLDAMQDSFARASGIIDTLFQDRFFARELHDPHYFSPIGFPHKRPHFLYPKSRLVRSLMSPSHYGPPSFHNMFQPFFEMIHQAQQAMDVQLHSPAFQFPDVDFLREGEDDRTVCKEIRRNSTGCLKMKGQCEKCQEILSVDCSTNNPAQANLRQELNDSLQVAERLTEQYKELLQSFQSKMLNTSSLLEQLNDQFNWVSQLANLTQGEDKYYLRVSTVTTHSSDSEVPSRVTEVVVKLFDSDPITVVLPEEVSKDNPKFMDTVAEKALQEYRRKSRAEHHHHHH

B1: MMP-9, propeptide-cleaved (APMA-processed active MMP-9) (protein)
chain: FQTFKGLKWDHHNITYWIQNYSEDLPRDMIDDAFARAFAVWGEVAPLTFTRVYGPEADIVIQFGVAEHGDGYPFDGKDGLLAHAFPPGAGVQGDAHFDDDELWSLGKGVVIPTYYGNSNGAPCHFPFTFEGRSYSACTTDGRNDGTPWCSTTADYDKDGKFGFCPSERLYTEHGNGEGKPCVFPFIFEGRSYSACTTKGRSDGYRWCATTANYDQDKLYGFCPTRVDATVVGGNSAGELCVFPFVFLGKQYSSCTSDGRRDGRLWCATTSNFDTDKKWGFCPDQGYSLFLVAAHEFGHALGLDHSSVPEALMYPLYSYLEGFPLNKDDIDGIQYLYGRGSKPDPRPPATTTTEPQPTAPPTMCPTIPPTAYPTVGPTVGPTGAPSPGPTSSPSPGPTGAPSPGPTAPPTAGSSEASTESLSPADNPCNVDVFDAIAEIQGALHFFKDGWYWKFLNHRGSPLQGPFLTARTWPALPATLDSAFEDPQTKRVFFFSGRQMWVYTGKTVLGPRSLDKLGLGPEVTHVSGLLPRRLGKALLFSKGRVWRFDLKSQKVDPQSVIRVDKEFSGVPWNSHDIFQYQDKAYFCHGKFFWRVSFQNEVNKVDHEVNQVDDVGYVTYDLLQCP
- digestion of CLU by active MMP-9 (SDS/PAGE, Coomasie staining; gelatin as known substrate): the density of CLU protein, separated as a and 6 subunits, changed little, whereas most high molecular weight gelatin disappeared upon incubation with MMP-9, indicating that CLU is not a substrate for MMP-9 in vitro
